Groups on a side chain read outwards from the residue. No end group written: not given here. NSMP = not defined here
T1: BSA-conjugated Aβ heptapeptide AEFRHDC (C-terminal Cys coupled to NSMP-activated BSA)
T1 construct: also called Peptide 2-7
T1 peptide: AEFRHDC

T2: BSA-conjugated Aβ heptapeptide LVFFAEC (reading uncertain; also: BSA conjugate)
T2 construct: also called Peptide 17-22
T2 peptide: LVFFAEC([NSMP-BSA])

T3: BSA-conjugated Aβ heptapeptide VFFAEDC (C-terminal Cys coupled to NSMP-activated BSA)
T3 construct: also called Peptide 18-23
T3 peptide: VFFAEDC

T4: BSA-conjugated Aβ heptapeptide FFAEDVC (C-terminal Cys coupled to NSMP-activated BSA)
T4 construct: also called Peptide 19-24
T4 peptide: FFAEDVC


Tests used:
[1] = target: T1, BSA-conjugated Aβ heptapeptide AEFRHDC; assay: ELISA
Method: (§1) 50 μl of NSMP activated BSA (6.7 mg/ml) was diluted with 50 μl of PBS, 0.1% sodium azide and 10 μl of peptide solution (1 mM in DMSO) was added. As negative control activated BSA was mock-treated without peptide addition. After 4 hrs at room temperature the reaction was stopped by addition of 10 μl of 10 mM Cystein. An aliquot of the conjugate reaction mixture was diluted 1:100 with 0.1M sodium bicarbonate buffer and immediately filled into the wells (100 μl) of ELISA plates (Nunc Immuno-Plate). After standing 16 hrs at 4° C. 100 μl blocking buffer (as above) was added to each well and incubated for another 30 minutes. The plates were washed with 2×300 μl/well TBST (as above) and filled with 100 μl antibody at 10 μg/ml or 2 μg/ml in blocking buffer. The plates were kept 16 hours at 4° C. and washed with 2×300 μl TBST. 100 μl/well HRP-conjugated anti-human Ig H+L (Pierce, dilution 1:1000 with blocking buffer) was added and incubated for 1 hour at ambient temperature. The plates were washed with 3×300 μl/well TBST. Colour development was started by addition of 100 μl tetra-methyl benzidine/hydrogen peroxide reagent.

[2] = target: T2, BSA-conjugated Aβ heptapeptide LVFFAEC; assay: ELISA
Method: as §1

[3] = target: T3, BSA-conjugated Aβ heptapeptide VFFAEDC; assay: ELISA
Method: as §1

[4] = target: T4, BSA-conjugated Aβ heptapeptide FFAEDVC; assay: ELISA
Method: as §1

human Aβ (1-40) peptide = target: T5, human Aβ (1-40) peptide (human); assay: SPR, immobilized fibers;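 further: biacore SPR using in vitro grown Aβ1-40 or Aβ1-42 fibrils immobilized on the chip with Fab analytes, KD from koff/kon fits or equilibrium isotherms based on total Fab concentration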
T5 construct: also called Aβ1-40 fibers

Aβ (1-42) peptide = target: T6, Aβ (1-42) peptide (human); assay: SPR, immobilized fibers;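 further: biacore SPR using in vitro grown Aβ1-40 or Aβ1-42 fibrils immobilized on the chip with Fab analytes, KD from koff/kon fits or equilibrium isotherms based on total Fab concentration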
T6 construct: also called Aβ1-42 fibers; Aβ4
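Wherever OD ratio 17-22/BSA is given: ELISA of antibody at 10 or 2 µg/ml binding plate-coated BSA–peptide conjugates, detected with HRP anti-human Ig and TMB colour, mock-treated BSA without peptide as negative control.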
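Wherever OD ratio 18-23/BSA is given: ELISA of antibody at 10 or 2 µg/ml binding plate-coated BSA–peptide conjugates, detected with HRP anti-human Ig and TMB colour, mock-treated BSA without peptide as negative control.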
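Wherever OD ratio 2-7/BSA is given: ELISA of antibody at 10 or 2 µg/ml binding plate-coated BSA–peptide conjugates, detected with HRP anti-human Ig and TMB colour, mock-treated BSA without peptide as negative control.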
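Wherever Peptide-ratio 17-22/2-7 is given: ELISA of antibody at 10 or 2 µg/ml binding plate-coated BSA–peptide conjugates, detected with HRP anti-human Ig and TMB colour, mock-treated BSA without peptide as negative control.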

Binder | OD ratio 2-7/BSA [1] | OD ratio 17-22/BSA [2] | Peptide-ratio 17-22/2-7 [2] | OD ratio 18-23/BSA [3] | Peptide-ratio 18-23/2-7 [3] | OD ratio 19-24/BSA [4] | Peptide-ratio 19-24/2-7 [4] | Kd (human Aβ (1-40) peptide) | Kd (Aβ (1-42) peptide)
MS-Roche #7 Fab (Fab, V domains shown, parental HuCAL Fab; also called MSR-7 Fab; MS-R 7) VH: not shown VL: DIVLTQSPATLSLSPGERATLSCRASQSVSSSYLAWYQQKPGQAPRLLIYGASSRATGVPARFSGSGSGTDFTLTISSLEPEDFATYYCFQLYSDPFTFGQGTKVEIKR | 24 | 4 | 0.17 | 7 | 0.29 | 4 | 0.17 | 1100 nM | 1710 nM
MS-Roche #7.11.H5 Fab (Fab, V domains shown) VH: QVQLVESGGGLVQPGGSLRLSCAASGFTFSSYAMSWVRQAPGKGLEWVSAINAHGQRTYYADSVKGRFTISRDNSKNTLYLQMNSLRAEDTAVYYCARGKGNTHKPYGYVRYFDVWGQGTLVTVSS VL: DIVLTQSPATLSLSPGERATLSCRASQSVSSSYLAWYQQKPGQAPRLLIYGASSRATGVPARFSGSGSGTDFTLTISSLEPEDFATYYCQQVYSPPHTFGQGTKVEIKR |  |  |  |  |  |  |  | 3.4 nM | 1.7 nM
MS-Roche #7.2 Fab (Fab, V domains shown) VH: not shown VL: DIVLTQSPATLSLSPGERATLSCRASQSVSSSYLAWYQQKPGQAPRLLIYGASSRATGVPARFSGSGSGTDFTLTISSLEPEDFATYYCQQIYSFPHTFGQGTKVEIKR | 34 | 12 | 0.35 | 16 | 0.47 | 9 | 0.26 | 22 nM | 58 nM
MS-Roche #7.9.H1 Fab (Fab, V domains shown, assembled) VH: QVQLVESGGGLVQPGGSLRLSCAASGFTFSSYAMSWVRQAPGKGLEWVSAINANGQRKFYADSVKGRFTISRDNSKNTLYLQMNSLRAEDTAVYYCARGKGNTHKPYGYVRYFDVWGQGTLVTVSS VL: DIVLTQSPATLSLSPGERATLSCRASQSVSSSYLAWYQQKPGQAPRLLIYGASSRATGVPARFSGSGSGTDFTLTISSLEPEDFATYYCLQIYNMPITFGQGTKVEIKR | 32 | 7 | 0.23 | 12 | 0.36 | 6 | 0.19 |  | 
MS-Roche #7.2.H1 Fab (Fab, V domains shown) VH: QVQLVESGGGLVQPGGSLRLSCAASGFTFSSYAMSWVRQAPGKGLEWVSAINANGLKKYYADSVKGRFTISRDNSKNTLYLQMNSLRAEDTAVYYCARGKGNTHKPYGYVRYFDVWGQGTLVTVSS VL: DIVLTQSPATLSLSPGERATLSCRASQSVSSSYLAWYQQKPGQAPRLLIYGASSRATGVPARFSGSGSGTDFTLTISSLEPEDFATYYCQQIYSFPHTFGQGTKVEIKR | 38 | 8 | 0.21 | 11 | 0.29 | 9 | 0.24 | 9.3 nM | 10.2 nM
MS-Roche #7.11.L1 Fab (Fab, V domains shown) VH: not shown VL: DIVLTQSPATLSLSPGERATLSCRASQRILRIYLAWYQQKPGQAPRLLIYGASSRATGVPARFSGSGSGTDFTLTISSLEPEDFATYYCQQVYSPPHTFGQGTKVEIKR |  |  |  |  |  |  |  | 1.1 nM | 1.2 nM
MS-Roche #7.4.H1 Fab (Fab, V domains shown) VH: QVQLVESGGGLVQPGGSLRLSCAASGFTFSSYAMSWVRQAPGKGLEWVSAINATGYRTYYADSVKGRFTISRDNSKNTLYLQMNSLRAEDTAVYYCARGKGNTHKPYGYVRYFDVWGQGTLVTVSS VL: not shown | 31 | 16 | 0.52 | 20 | 0.65 | 16 | 0.51 |  | 
MS-Roche #3.4.H2 Fab (Fab, V domains shown, H-CDR2 printed with 16 residues) VH: QVQLVESGGGLVQPGGSLRLSCAASGFTFSSYAMSWVRQAPGKGLEWVSVIDMVGHTYYADSVKGRFTISRDNSKNTLYLQMNSLRAEDTAVYYCARLTHYARYYRYFDVWGQGTLVTVSS VL: not shown | 16 | 11 | 0.69 | 1 | 0.06 | 1 | 0.06 |  | 
MS-Roche #8.2.H4 Fab (Fab, V domains shown, H-CDR2 printed with 16 residues) VH: QVQLVESGGGLVQPGGSLRLSCAASGFTFSSYAMSWVRQAPGKGLEWVSATSVKGKTYYADSVKGRFTISRDNSKNTLYLQMNSLRAEDTAVYYCARLLSRGYNGYYHKFDVWGQGTLVTVSS VL: not shown |  |  |  |  |  |  |  | 12.1 nM | 11.9 nM
MS-Roche #7.12.H1 Fab (Fab, V domains shown) VH: QVQLVESGGGLVQPGGSLRLSCAASGFTFSSYGMSWVRQAPGKGLEWVSNINGNGNRKYYADSVKGRFTISRDNSKNTLYLQMNSLRAEDTAVYYCARGKGNTHKPYGYVRYFDVWGQGTLVTVSS VL: DIVLTQSPATLSLSPGERATLSCRASQYVFRRYLAWYQQKPGQAPRLLISGSSNRATGVPARFSGSGSGTDFTLTISSLEPEDFAVYYCLQLYNIPNTFGQGTKVEIKR |  |  |  |  |  |  |  | 0.6 nM | 0.8 nM
MS-Roche #7.12.L3 Fab (Fab, V domains shown) VH: QVQLVESGGGLVQPGGSLRLSCAASGFTFSSYGMSWVRQAPGKGLEWVSNISGSGSSTYYADSVKGRFTISRDNSKNTLYLQMNSLRAEDTAVYYCARGKGNTHKPYGYVRYFDVWGQGTLVTVSS VL: DIVLTQSPATLSLSPGERATLSCRASQFVRRGFLAWYQQKPGQAPRLLISGSSNRATGVPARFSGSGSGTDFTLTISSLEPEDFAVYYCLQLYNIPNTFGQGTKVEIKR |  |  |  |  |  |  |  | 0.8 nM | 0.9 nM
MS-Roche #7.12.L2 Fab (Fab, V domains shown) VH: QVQLVESGGGLVQPGGSLRLSCAASGFTFSSYGMSWVRQAPGKGLEWVSNISGSGSSTYYADSVKGRFTISRDNSKNTLYLQMNSLRAEDTAVYYCARGKGNTHKPYGYVRYFDVWGQGTLVTVSS VL: DIVLTQSPATLSLSPGERATLSCRASQRFFYKYLAWYQQKPGQAPRLLISGSSNRATGVPARFSGSGSGTDFTLTISSLEPEDFAVYYCLQLYNIPNTFGQGTKVEIKR |  |  |  |  |  |  |  | 4 nM | 5.4 nM
MS-Roche #7.12.L1 Fab (Fab, V domains shown) VH: QVQLVESGGGLVQPGGSLRLSCAASGFTFSSYGMSWVRQAPGKGLEWVSNISGSGSSTYYADSVKGRFTISRDNSKNTLYLQMNSLRAEDTAVYYCARGKGNTHKPYGYVRYFDVWGQGTLVTVSS VL: DIVLTQSPATLSLSPGERATLSCRASQYVFRRYLAWYQQKPGQAPRLLISGSSNRATGVPARFSGSGSGTDFTLTISSLEPEDFAVYYCLQLYNIPNTFGQGTKVEIKR | 16 | 10 | 0.6 | 12 | 0.7 | 10 | 0.59 |  | 3.8 nM
MS-Roche #7.12.L4 Fab (Fab, V domains shown) VH: QVQLVESGGGLVQPGGSLRLSCAASGFTFSSYGMSWVRQAPGKGLEWVSNISGSGSSTYYADSVKGRFTISRDNSKNTLYLQMNSLRAEDTAVYYCARGKGNTHKPYGYVRYFDVWGQGTLVTVSS VL: DIVLTQSPATLSLSPGERATLSCRASQRLKRSYLAWYQQKPGQAPRLLISGSSNRATGVPARFSGSGSGTDFTLTISSLEPEDFAVYYCLQLYNIPNTFGQGTKVEIKR |  |  |  |  |  |  |  | 2 nM | 0.6 nM
MS-Roche #3.4.H7 Fab (Fab, V domains shown) VH: QVQLVESGGGLVQPGGSLRLSCAASGFTFSSYAMSWVRQAPGKGLEWVSVISETGKNIYYADSVKGRFTISRDNSKNTLYLQMNSLRAEDTAVYYCARLTHYARYYRYFDVWGQGTLVTVSS VL: not shown | 24 |  |  | 6 | 0.25 | 5 | 0.21 | 19.2 nM | 31.7 nM
MS-Roche #3.4.L9 Fab (Fab, V domains shown) VH: not shown VL: DIVLTQSPATLSLSPGERATLSCRASRRIHVYYLAWYQQKPGQAPRLLIYGASSRATGVPARFSGSGSGTDFTLTISSLEPEDFATYYCQQTYDYPPTFGQGTKVEIKR |  |  |  |  |  |  |  | 16.3 nM | 9.1 nM
MS-Roche #3.4.H13 Fab (Fab, V domains shown) VH: QVQLVESGGGLVQPGGSLRLSCAASGFTFSSYAMSWVRQAPGKGLEWVSAISEQGRNIYYADSVKGRFTISRDNSKNTLYLQMNSLRAEDTAVYYCARLTHYARYYRYFDVWGQGTLVTVSS VL: not shown |  |  |  |  |  |  |  | 32.3 nM | 18.8 nM
MS-Roche #3.6.H3 Fab (Fab, V domains shown) VH: QVQLVESGGGLVQPGGSLRLSCAASGFTFSSYAMSWVRQAPGKGLEWVSVISETGKFIYYADSVKGRFTISRDNSKNTLYLQMNSLRAEDTAVYYCARLTHYARYYRYFDVWGQGTLVTVSS VL: not shown |  |  |  |  |  |  |  | 5.4 nM | 7.5 nM
MS-Roche #3.4.H14 Fab (Fab, V domains shown) VH: QVQLVESGGGLVQPGGSLRLSCAASGFTFSSYAMSWVRQAPGKGLEWVSAISESGQYKYYADSVKGRFTISRDNSKNTLYLQMNSLRAEDTAVYYCARLTHYARYYRYFDVWGQGTLVTVSS VL: not shown |  |  |  |  |  |  |  | 13.3 nM | 16.8 nM
MS-Roche #3.6.L2 Fab (Fab, V domains shown) VH: not shown VL: DIVLTQSPATLSLSPGERATLSCRASQFLSRYYLAWYQQKPGQAPRLLIYGASSRATGVPARFSGSGSGTDFTLTISSLEPEDFAVYYCQQTYNYPPTFGQGTKVEIKR |  |  |  |  |  |  |  | 13.7 nM | 13.1 nM

— US20100172907A1 (Hoffmann-La Roche, published 2010)
